B1: 2A-R152W*: KDM4A mutation (protein, UniProt O75164 2-1064, looked up, variant R152W)
Lysine-specific demethylase 4A: ASESETLNPSARIMTFYPTMEEFRNFSRYIAYIESQGAHRAGLAKVVPPKEWKPRASYDDIDDLVIPAPIQQLVTGQSGLFTQYNIQKKAMTVREFRKIANSDKYCTPRYSEFEELERKYWKNLTFNPPIYGADVNGTLYEKHVDEWNIGWLRTILDLVEKESGITIEGVNTPYLYFGMWKTSFAWHTEDMDLYSINYLHFGEPKSWYSVPPEHGKRLERLAKGFFPGSAQSCEAFLRHKMTLISPLMLKKYGIPFDKVTQEAGEFMITFPYGYHAGFNHGFNCAESTNFATRRWIEYGKQAVLCSCRKDMVKISMDVFVRKFQPERYKLWKAGKDNTVIDHTLPTPEAAEFLKESELPPRAGNEEECPEEDMEGVEDGEEGDLKTSLAKHRIGTKRHRVCLEIPQEVSQSELFPKEDLSSEQYEMTECPAALAPVRPTHSSVRQVEDGLTFPDYSDSTEVKFEELKNVKLEEEDEEEEQAAAALDLSVNPASVGGRLVFSGSKKKSSSSLGSGSSRDSISSDSETSEPLSCRAQGQTGVLTVHSYAKGDGRVTVGEPCTRKKGSAARSFSERELAEVADEYMFSLEENKKSKGRRQPLSKLPRHHPLVLQECVSDDETSEQLTPEEEAEETEAWAKPLSQLWQNRPPNFEAEKEFNETMAQQAPHCAVCMIFQTYHQVEFGGFNQNCGNASDLAPQKQRTKPLIPEMCFTSTGCSTDINLSTPYLEEDGTSILVSCKKCSVRVHASCYGVPPAKASEDWMCSRCSANALEEDCCLCSLRGGALQRANDDRWVHVSCAVAILEARFVNIAERSPVDVSKIPLPRFKLKCIFCKKRRKRTAGCCVQCSHGRCPTAFHVSCAQAAGVMMQPDDWPFVVFITCFRHKIPNLERAKGALQSITAGQKVISKHKNGRFYQCEVVRLTTETFYEVNFDDGSFSDNLYPEDIVSQDCLQFGPPAEGEVVQVRWTDGQVYGAKFVASHPIQMYQVEFEDGSQLVVKRDDVYTLDEELPKRVKSRLSVASDMRFNEIFTEKEVKQEKKRQRVINSRYREDYIEPALYRAIME
B2: 2A-I87V: KDM4A mutation (protein)
chain: MASESETLNPSARIMTFYPTMEEFRNFSRYIAYIESQGAHRAGLAKVVPPKEWKPRASYDDIDDLVIPAPIQQLVTGQSGLFTQYNVQKKAMTVREFRKIANSDKYCTPRYSEFEELERKYWKNLTFNPPIYGADVNGTLYEKHVDEWNIGRLRTILDLVEKESGITIEGVNTPYLYFGMWKTSFAWHTEDMDLYSINYLHFGEPKSWYSVPPEHGKRLERLAKGFFPGSAQSCEAFLRHKMTLISPLMLKKYGIPFDKVTQEAGEFMITFPYGYHAGFNHGFNCAESTNFATRRWIEYGKQAVLCSCRKDMVKISMDVFVRKFQPERYKLWKAGKDNTVIDHTLPTPEAAEFLKESELPPRAGNEEECPEEDMEGVEDGEEGDLKTSLAKHRIGTKRHRVCLEIPQEVSQSELFPKEDLSSEQYEMTECPAALAPVRPTHSSVRQVEDGLTFPDYSDSTEVKFEELKNVKLEEEDEEEEQAAAALDLSVNPASVGGRLVFSGSKKKSSSSLGSGSSRDSISSDSETSEPLSCRAQGQTGVLTVHSYAKGDGRVTVGEPCTRKKGSAARSFSERELAEVADEYMFSLEENKKSKGRRQPLSKLPRHHPLVLQECVSDDETSEQLTPEEEAEETEAWAKPLSQLWQNRPPNFEAEKEFNETMAQQAPHCAVCMIFQTYHQVEFGGFNQNCGNASDLAPQKQRTKPLIPEMCFTSTGCSTDINLSTPYLEEDGTSILVSCKKCSVRVHASCYGVPPAKASEDWMCSRCSANALEEDCCLCSLRGGALQRANDDRWVHVSCAVAILEARFVNIAERSPVDVSKIPLPRFKLKCIFCKKRRKRTAGCCVQCSHGRCPTAFHVSCAQAAGVMMQPDDWPFVVFITCFRHKIPNLERAKGALQSITAGQKVISKHKNGRFYQCEVVRLTTETFYEVNFDDGSFSDNLYPEDIVSQDCLQFGPPAEGEVVQVRWTDGQVYGAKFVASHPIQMYQVEFEDGSQLVVKRDDVYTLDEELPKRVKSRLSVASDMRFNEIFTEKEVKQEKKRQRVINSRYREDYIEPALYRAIME
B3: 2A-V919M: KDM4A mutation (protein)
chain: MASESETLNPSARIMTFYPTMEEFRNFSRYIAYIESQGAHRAGLAKVVPPKEWKPRASYDDIDDLVIPAPIQQLVTGQSGLFTQYNIQKKAMTVREFRKIANSDKYCTPRYSEFEELERKYWKNLTFNPPIYGADVNGTLYEKHVDEWNIGRLRTILDLVEKESGITIEGVNTPYLYFGMWKTSFAWHTEDMDLYSINYLHFGEPKSWYSVPPEHGKRLERLAKGFFPGSAQSCEAFLRHKMTLISPLMLKKYGIPFDKVTQEAGEFMITFPYGYHAGFNHGFNCAESTNFATRRWIEYGKQAVLCSCRKDMVKISMDVFVRKFQPERYKLWKAGKDNTVIDHTLPTPEAAEFLKESELPPRAGNEEECPEEDMEGVEDGEEGDLKTSLAKHRIGTKRHRVCLEIPQEVSQSELFPKEDLSSEQYEMTECPAALAPVRPTHSSVRQVEDGLTFPDYSDSTEVKFEELKNVKLEEEDEEEEQAAAALDLSVNPASVGGRLVFSGSKKKSSSSLGSGSSRDSISSDSETSEPLSCRAQGQTGVLTVHSYAKGDGRVTVGEPCTRKKGSAARSFSERELAEVADEYMFSLEENKKSKGRRQPLSKLPRHHPLVLQECVSDDETSEQLTPEEEAEETEAWAKPLSQLWQNRPPNFEAEKEFNETMAQQAPHCAVCMIFQTYHQVEFGGFNQNCGNASDLAPQKQRTKPLIPEMCFTSTGCSTDINLSTPYLEEDGTSILVSCKKCSVRVHASCYGVPPAKASEDWMCSRCSANALEEDCCLCSLRGGALQRANDDRWVHVSCAVAILEARFVNIAERSPVDVSKIPLPRFKLKCIFCKKRRKRTAGCCVQCSHGRCPTAFHVSCAQAAGVMMQPDDWPFVVFITCFRHKIPNLERAKGALQSITAGQKVISKHKNGRFYQCEMVRLTTETFYEVNFDDGSFSDNLYPEDIVSQDCLQFGPPAEGEVVQVRWTDGQVYGAKFVASHPIQMYQVEFEDGSQLVVKRDDVYTLDEELPKRVKSRLSVASDMRFNEIFTEKEVKQEKKRQRVINSRYREDYIEPALYRAIME
B4: 2A-K123I: KDM4A mutation (protein)
chain: MASESETLNPSARIMTFYPTMEEFRNFSRYIAYIESQGAHRAGLAKVVPPKEWKPRASYDDIDDLVIPAPIQQLVTGQSGLFTQYNIQKKAMTVREFRKIANSDKYCTPRYSEFEELERKYWINLTFNPPIYGADVNGTLYEKHVDEWNIGRLRTILDLVEKESGITIEGVNTPYLYFGMWKTSFAWHTEDMDLYSINYLHFGEPKSWYSVPPEHGKRLERLAKGFFPGSAQSCEAFLRHKMTLISPLMLKKYGIPFDKVTQEAGEFMITFPYGYHAGFNHGFNCAESTNFATRRWIEYGKQAVLCSCRKDMVKISMDVFVRKFQPERYKLWKAGKDNTVIDHTLPTPEAAEFLKESELPPRAGNEEECPEEDMEGVEDGEEGDLKTSLAKHRIGTKRHRVCLEIPQEVSQSELFPKEDLSSEQYEMTECPAALAPVRPTHSSVRQVEDGLTFPDYSDSTEVKFEELKNVKLEEEDEEEEQAAAALDLSVNPASVGGRLVFSGSKKKSSSSLGSGSSRDSISSDSETSEPLSCRAQGQTGVLTVHSYAKGDGRVTVGEPCTRKKGSAARSFSERELAEVADEYMFSLEENKKSKGRRQPLSKLPRHHPLVLQECVSDDETSEQLTPEEEAEETEAWAKPLSQLWQNRPPNFEAEKEFNETMAQQAPHCAVCMIFQTYHQVEFGGFNQNCGNASDLAPQKQRTKPLIPEMCFTSTGCSTDINLSTPYLEEDGTSILVSCKKCSVRVHASCYGVPPAKASEDWMCSRCSANALEEDCCLCSLRGGALQRANDDRWVHVSCAVAILEARFVNIAERSPVDVSKIPLPRFKLKCIFCKKRRKRTAGCCVQCSHGRCPTAFHVSCAQAAGVMMQPDDWPFVVFITCFRHKIPNLERAKGALQSITAGQKVISKHKNGRFYQCEVVRLTTETFYEVNFDDGSFSDNLYPEDIVSQDCLQFGPPAEGEVVQVRWTDGQVYGAKFVASHPIQMYQVEFEDGSQLVVKRDDVYTLDEELPKRVKSRLSVASDMRFNEIFTEKEVKQEKKRQRVINSRYREDYIEPALYRAIME
B5: 2A-E113K: KDM4A mutation (protein)
chain: MASESETLNPSARIMTFYPTMEEFRNFSRYIAYIESQGAHRAGLAKVVPPKEWKPRASYDDIDDLVIPAPIQQLVTGQSGLFTQYNIQKKAMTVREFRKIANSDKYCTPRYSKFEELERKYWKNLTFNPPIYGADVNGTLYEKHVDEWNIGRLRTILDLVEKESGITIEGVNTPYLYFGMWKTSFAWHTEDMDLYSINYLHFGEPKSWYSVPPEHGKRLERLAKGFFPGSAQSCEAFLRHKMTLISPLMLKKYGIPFDKVTQEAGEFMITFPYGYHAGFNHGFNCAESTNFATRRWIEYGKQAVLCSCRKDMVKISMDVFVRKFQPERYKLWKAGKDNTVIDHTLPTPEAAEFLKESELPPRAGNEEECPEEDMEGVEDGEEGDLKTSLAKHRIGTKRHRVCLEIPQEVSQSELFPKEDLSSEQYEMTECPAALAPVRPTHSSVRQVEDGLTFPDYSDSTEVKFEELKNVKLEEEDEEEEQAAAALDLSVNPASVGGRLVFSGSKKKSSSSLGSGSSRDSISSDSETSEPLSCRAQGQTGVLTVHSYAKGDGRVTVGEPCTRKKGSAARSFSERELAEVADEYMFSLEENKKSKGRRQPLSKLPRHHPLVLQECVSDDETSEQLTPEEEAEETEAWAKPLSQLWQNRPPNFEAEKEFNETMAQQAPHCAVCMIFQTYHQVEFGGFNQNCGNASDLAPQKQRTKPLIPEMCFTSTGCSTDINLSTPYLEEDGTSILVSCKKCSVRVHASCYGVPPAKASEDWMCSRCSANALEEDCCLCSLRGGALQRANDDRWVHVSCAVAILEARFVNIAERSPVDVSKIPLPRFKLKCIFCKKRRKRTAGCCVQCSHGRCPTAFHVSCAQAAGVMMQPDDWPFVVFITCFRHKIPNLERAKGALQSITAGQKVISKHKNGRFYQCEVVRLTTETFYEVNFDDGSFSDNLYPEDIVSQDCLQFGPPAEGEVVQVRWTDGQVYGAKFVASHPIQMYQVEFEDGSQLVVKRDDVYTLDEELPKRVKSRLSVASDMRFNEIFTEKEVKQEKKRQRVINSRYREDYIEPALYRAIME

Assays:
[1] = system: H3K36me3; assay: H3K36 demethylase activity of KDM4A variants in transfected cells (immunofluorescence); type: cell-based; parameters: key: + indicates active; − indicates inactive; +/− indicates partial acitivty; conditions: KDM4A mutations
Experimental: The indicated NHF-tagged KDM4A deletion constructs were transfected into RPE cells grown on coverslips in 10 cm dishes using X-tremeGENE 9™ DNA transfection reagent (Roche). H3K36me3 and subcellular localization were assayed by examining transfected cells (positive for HA staining; HA.11 Covance) following fixation in 3.7% PFA in PBS (Whetstine et al., 2006).
All immunofluorescence experiments were performed as in (Black et al., 2013). For the localization experiment a minimum of 50 cells were blinded and scored. For the catalytic activity, cells overexpressing a high level of KDM4A WT or SNP-A482 were analyzed in a non quantitative manner.

[2] = system: H3K9me3; assay: H3K9 demethylase activity of KDM4 variants in transfected cells; type: cell-based; parameters: key: + indicates active; − indicates inactive; +/− indicates partial acitivty; conditions: KDM4A mutations

| Molecule | H3k36 Demethylase Activity [1] | H3k9 Demethylase Activity [2] |
| --- | --- | --- |
| B1 | + | + |
| B2 | + | + |
| B3 | + |  |
| B4 | + |  |
| B5 | + | +/− |

Source: patent publication US20160113911A1, “METHODS AND COMPOSITIONS FOR THE TREATMENT OF CANCER” (THE GENERAL HOSPITAL CORPORATION, priority 2013, published 2016)
